Results on five molecules are retold here after US11446371B2, “Targeting of ligand binding sites in ClfA” (THE TEXAS A&M UNIVERSITY SYSTEM, priority 2015, dated 2022).

Experiment [1] addresses T1, immobilized human Fg (Homo sapiens, UniProt P02671+P02675+P02679).
T1 construct: immobilized intact Fg
T1 sequence (P02671 20-644 isoform P02671-2 limits assumed): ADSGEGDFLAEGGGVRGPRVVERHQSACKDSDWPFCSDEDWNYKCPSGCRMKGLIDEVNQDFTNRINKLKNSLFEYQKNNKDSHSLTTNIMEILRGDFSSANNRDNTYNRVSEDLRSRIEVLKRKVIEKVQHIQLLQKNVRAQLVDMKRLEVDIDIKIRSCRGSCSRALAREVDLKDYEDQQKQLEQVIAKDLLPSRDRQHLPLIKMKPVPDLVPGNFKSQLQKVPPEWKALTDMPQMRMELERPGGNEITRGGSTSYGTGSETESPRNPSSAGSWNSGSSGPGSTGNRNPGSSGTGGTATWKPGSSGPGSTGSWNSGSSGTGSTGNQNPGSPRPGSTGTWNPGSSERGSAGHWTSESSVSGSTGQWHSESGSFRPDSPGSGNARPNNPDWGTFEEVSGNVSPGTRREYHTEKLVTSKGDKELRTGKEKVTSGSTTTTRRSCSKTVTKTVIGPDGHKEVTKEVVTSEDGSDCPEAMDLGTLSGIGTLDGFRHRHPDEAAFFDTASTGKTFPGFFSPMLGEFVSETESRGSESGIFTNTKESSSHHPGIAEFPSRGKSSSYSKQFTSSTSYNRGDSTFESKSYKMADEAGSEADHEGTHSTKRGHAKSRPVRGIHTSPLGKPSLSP
T1 sequence (P02675 31-491): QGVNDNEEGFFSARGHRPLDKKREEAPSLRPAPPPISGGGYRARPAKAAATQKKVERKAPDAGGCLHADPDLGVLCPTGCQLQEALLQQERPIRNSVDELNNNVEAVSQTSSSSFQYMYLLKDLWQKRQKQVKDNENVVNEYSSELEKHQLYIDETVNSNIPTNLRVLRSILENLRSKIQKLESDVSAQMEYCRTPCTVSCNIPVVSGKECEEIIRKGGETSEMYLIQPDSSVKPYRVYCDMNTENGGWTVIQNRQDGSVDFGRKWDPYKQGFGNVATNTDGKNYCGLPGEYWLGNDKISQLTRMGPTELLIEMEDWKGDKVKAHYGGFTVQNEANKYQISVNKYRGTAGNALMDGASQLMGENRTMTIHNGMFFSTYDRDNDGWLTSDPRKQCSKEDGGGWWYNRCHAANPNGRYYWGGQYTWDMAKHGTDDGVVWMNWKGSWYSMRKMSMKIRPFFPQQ
T1 sequence (P02679 27-437 isoform P02679-2 limits assumed): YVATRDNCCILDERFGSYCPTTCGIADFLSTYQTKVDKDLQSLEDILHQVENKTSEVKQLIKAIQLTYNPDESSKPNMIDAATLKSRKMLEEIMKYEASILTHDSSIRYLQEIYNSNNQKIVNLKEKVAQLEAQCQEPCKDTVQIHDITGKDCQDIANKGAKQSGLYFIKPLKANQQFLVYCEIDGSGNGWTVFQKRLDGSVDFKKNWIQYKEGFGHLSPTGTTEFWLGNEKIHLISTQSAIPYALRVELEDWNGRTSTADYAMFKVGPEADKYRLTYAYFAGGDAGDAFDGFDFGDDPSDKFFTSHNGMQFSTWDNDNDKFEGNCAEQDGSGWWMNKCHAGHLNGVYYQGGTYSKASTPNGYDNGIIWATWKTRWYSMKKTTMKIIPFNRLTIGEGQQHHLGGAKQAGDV
As to the kind of experiment: SPR binding of ClfA proteins to immobilized Fg. The note with it: 0.1 μM ClfA221-559 variant. As to the method: (§1) Surface Plasmon Resonance. Surface plasmon resonance-based binding experiments were performed at 25° C. on a Biacore 3000 (GE Healthcare/Biacore, Uppsala, Sweden). Phosphate buffered saline (PBS-T: 8.06 mM Na2HPO4, 1.94 mM KH2PO4, 2.7 mM KCl and 137 mM NaCl, pH 7.4, and 0.005% Tween-20) was used as running buffer for immobilization and binding experiments. Flow rate of 5 μl/min was used during immobilization and a higher rate 30 or 50 μl/min for binding experiments. The fibrinogen (Fg) surface was prepared on a CM5 sensor chip via standard amine-coupling chemistry. A Fg solution (10 μl of 20 μg/ml in sodium citrate, pH5.5) was injected to an activated (4 min) flow cell. After deactivation, about 7000 resonance units (RU) of Fg were immobilized. A reference surface was prepared with activation and deactivation steps but no protein coupled. […] For GST fusion protein capturing, approximately 11000 RU of goat anti-GST antibody (GE Healthcare/Biacore) were immobilized simultaneously on two flow cells on a CM5 sensor chip. GST-tagged Fg γ-peptide (20 μg/ml in PBS-T) was captured by the antibody and created a ligand surface (about 700 RU). The other flow cell with GST captured (about 900 RU) served as a reference surface. […] All SPR responses were baseline corrected by subtracting response generated from reference surface.
(§2) Since most of the known and putative Fg interactive sites in ClfA are located within the N3 subdomain we examined the interactions of a recombinant form of N3 (ClfA370-559) to the different forms of immobilized Fg.

In experiment [2] the test system is immobilized Tefibazumab. The experiment can be described thus: SPR binding of ClfA221-559 variants to immobilized Tefibazumab. The note with it: 0.1 μM ClfA221-559 variant. The text has this:
Surface Plasmon Resonance.
FIG. 3A is a ribbon diagram of ClfA-N3 domain showing the positions of PWY. The Fg γ-peptide is shown as a ribbon to show the location of the Fg γ-peptide binding site. […] The amino acid substitutions in the variant proteins were made at the mAb binding site. FIG. 3C is a graph of ClfAPWY and Fg-γ P16 peptide interaction measured by ITC.
(In general: Surface plasmon resonance follows binding to a sensor surface in real time, without labels.)

Experiment [3] has as its target T2, ClfACC (Staphylococcus aureus, UniProt Q53653, D327C/K541C).
T2 construct: made in house; host or cells: E. coli Topp3
T2 sequence (Q53653 229-545 D327C/K541C limits assumed): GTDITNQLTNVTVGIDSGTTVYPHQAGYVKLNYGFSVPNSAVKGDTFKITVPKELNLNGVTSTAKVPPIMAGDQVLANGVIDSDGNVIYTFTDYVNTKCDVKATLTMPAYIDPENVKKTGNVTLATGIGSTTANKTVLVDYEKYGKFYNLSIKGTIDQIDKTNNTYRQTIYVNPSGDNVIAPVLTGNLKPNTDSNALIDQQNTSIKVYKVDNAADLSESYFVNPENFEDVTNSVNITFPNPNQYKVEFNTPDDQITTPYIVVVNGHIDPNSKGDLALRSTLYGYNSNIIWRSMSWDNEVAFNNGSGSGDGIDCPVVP
As to the kind of experiment: ITC, synthetic C-terminal γ-chain peptide titrated into ClfACC. It counts as binding, S. aureus. The note with it: peptide titrated into cell containing ClfACC. (In general: ITC needs no label: the signal is the heat of the interaction.)

Experiment [4] concerns the target Fg binding to ClfA (Staphylococcus aureus, UniProt Q53653). As to the kind of experiment: Reduction of Fg binding to ClfA by synthetic Fg γ-peptide. The note with it: even at high concentrations. Also on record: species or system S. aureus.
Experiment [5] relates to immobilized human Fg. The experiment can be described thus: SPR binding of ClfA proteins to immobilized Fg. The note with it: immobilized Fg, Fg D-fragment, GST-γ-peptide. As to the method:
as §1, §2

Entries after “also recorded” stand apart in the source; their conditions may differ. Where a SMILES comes first, the peptide text is derived from it.

For the molecule Y512A, the “binding to immobilized human Fg” value in experiment [1] is “reduced binding”. Also, the “binding to immobilized Tefibazumab” value in experiment [2] is given as “slightly reduced binding”.
By Kd is commonly meant the equilibrium constant for the complex coming apart. Read a high Kd as weaker binding. The molecule `CC(C)C[C@H](NC(=O)[C@H](Cc1c[nH]cn1)NC(=O)[C@H](Cc1c[nH]cn1)NC(=O)[C@H](CCC(N)=O)NC(=O)[C@H](CCC(N)=O)NC(=O)CNC(=O)[C@H](CCC(=O)O)NC(=O)CN)C(=O)NCC(=O)NCC(=O)N[C@@H](C)C(=O)N[C@@H](CCCCN)C(=O)N[C@@H](CCC(N)=O)C(=O)N[C@@H](C)C(=O)NCC(=O)N[C@@H](CC(=O)O)C(=O)N[C@H](C(=O)O)C(C)C` [Fg γ-peptide] (H-GEGQQHHLGGAKQAGDV-OH; N-terminus and C-terminus assumed) displayed a Kd in experiment [3] of 9 µM. The “maximum reduction of Fg binding to ClfA” value in experiment [4] was around 50%.

B1: ClfA370-559: recombinant form of the ClfA N3 subdomain (protein)
chain: EKYGKFYNLSIKGTIDQIDKTNNTYRQTIYVNPSGDNVIAPVLTGNLKPNTDSNALIDQQNTSIKVYKVDNAADLSESYFVNPENFEDVTNSVNITFPNPNQYKVEFNTPDDQITTPYIVVVNGHIDPNSKGDLALRSTLYGYNSNIIWRSMSWDNEVAFNNGSGSGDGIDKPVVPEQPDEPGEIEPIPE
With B1, the “fold difference in KD between binding to γ-peptide and to Fg or Fg D-fragment” value in experiment [5] is “about 10 fold”.

B2: ClfAPWY (protein)
chain: VAADAPAAGTDITNQLTNVTVGIDSGTTVYPHQAGYVKLNYGFSVPNSAVKGDTFKITVPKELNLNGVTSTAKVPPIMAGDQVLANGVIDSDGNVIYTFTDYVNTKDDVKATLTMPAYIDPENVKKTGNVTLATGIGSTTANKTVLVDYEKYGKFYNLSIKGTIDQIDKTNNTYRQTIYVNPSGDNVIAPVLTGNLKPNTDSNALIDQQNTSIKVYKVDNAADLSESYFVNPENFEDVTNSVNITFANPNQYKVEFNTPDDQITTPYIVVVNGHIDPNSKGDLALRSTLYGANSNIIARSMSWDNEVAFNNGSGSGDGIDKPVVPEQPDEPGEIEPIPE
In the case of B2, the “binding to immobilized human Fg” value in experiment [1] was “minimal binding”. Also, the “binding to immobilized Tefibazumab” value in experiment [2] is reported as “almost completely abolished; also recorded: completely lost its ability to bind”.

B3: ClfA221-559: recombinant ClfA residues 221-559 (N2N3 subdomains) from S. aureus strain Newman (protein)
chain: VAADAPAAGTDITNQLTNVTVGIDSGTTVYPHQAGYVKLNYGFSVPNSAVKGDTFKITVPKELNLNGVTSTAKVPPIMAGDQVLANGVIDSDGNVIYTFTDYVNTKDDVKATLTMPAYIDPENVKKTGNVTLATGIGSTTANKTVLVDYEKYGKFYNLSIKGTIDQIDKTNNTYRQTIYVNPSGDNVIAPVLTGNLKPNTDSNALIDQQNTSIKVYKVDNAADLSESYFVNPENFEDVTNSVNITFPNPNQYKVEFNTPDDQITTPYIVVVNGHIDPNSKGDLALRSTLYGYNSNIIWRSMSWDNEVAFNNGSGSGDGIDKPVVPEQPDEPGEIEPIPE
For the molecule B3, in experiment [5], the “fold difference in KD between binding to γ-peptide and to Fg or Fg D-fragment” value is given as 4-7 fold.
